This series concerns the molecule itself. Nature of the series: Western blot with anti-His6 antibody: band of about 92 kDa against a theoretical mass of 47 kDa. On the technique in general: In western blotting, separated proteins are transferred to a membrane and probed.

B1: HvNEP-1 (Hordeum vulgare nepenthesin-1-type aspartic endoprotease), ΔHvNEP-1 with C-terminal His6 tag, expressed in Pichia pastoris KM71H (enzyme)
chain: DADTPKVAMASSGAGSSFRLAAHHDHALSRSDDGFLHVQSRLDNLLPSEANVTTLRPPVASPLDMAFSVVVGLGSGKGRHDYNLKLDASGSLTWVQCKPCNPKQPQRGPLFDPKASSTFQQVAGTSQICHPPYPMEPAGQQCAFHLSGMGGMSVHGYVAMENLTMGPEAMKEFVFGCSHSTGHFNSHGTFAGVAAMGKMPTSLVMQVAARGQTRFSYCLFSGGASRHGFLRFGADVPSRSGLRTTKILPALDAHESQYYVSLVGISLDAKRLTGVRPEMFARQRGGEGGCVVDPGTPLTVLVREAYRVVEDAVWSDLRRNKAERVQREGYGLCVRKTAEIKRHLQSLSLHFAEETARLVVKPEQLFVAVESRLHGAALCLAMRPGERTVIGALQQVDTRFVYDLKDAKLSFASEPCSQDTAGVDHHHHHH
notes: also called HvNEP-1 protease; truncated HvNEP-1
For B1, the binding result is listed as “binds”.

The values above are taken from patent US20200325490A1 (AARHUS UNIVERSITET, published 2020).
